B1: R2R3-S305N peptide fragment (peptide)
peptide: Ac-DNIKHVPGGGNVQIVYK-NH2
B2: R2R3-V300I peptide fragment (peptide)
peptide: Ac-DNIKHIPGGGSVQIVYK-NH2
B3: 306VQIVYK311 hexapeptide (peptide)
peptide: Ac-VQIVYK-NH2
B4: R2R3-P301S peptide fragment (peptide)
peptide: Ac-DNIKHVSGGGSVQIVYK-NH2
B5: R2R3-P301L peptide fragment (peptide)
peptide: Ac-DNIKHVLGGGSVQIVYK-NH2
B6: R2R3-G303V peptide fragment (peptide)
peptide: Ac-DNIKHVPGVGSVQIVYK-NH2

Biological target: the molecule itself
Test: thioflavin T

Binding result, binds:
B1
B2
B3
B4
B5
B6
